Experimental data reported in the DeepSol protein solubility set.

assay: soluble on expression in E. coli; label from the status in PepcDB or PDB records

Question: With “MALNGTPALNVNWHGNYDVIVLGFGGAGASAARFAADNGAHVLVVDAAPFGREGGNTRYSAQHVVTGESLDKLTAYYQALGAPFSTPTKTLNAYLSGMSKIPAYFEKYLGIKAVSWKHDIKPGDAVAIKKTMAEYPELAGSDTIDFALVHKRDKDAALWKLLRQKVLERADNIDVWLDSRAQHLIQDPNTKVIQGVQIKRGERLLNIHANNGVVLAMGGFENNPELKQTYLHSDNLTPLGTLYNRGDGIKMAQEVDAKMWHMTNYESHGILPGLEHHHHHH” as the sequence, how does the “soluble on expression in E. coli” value read?
Answer: not soluble

Question: Which “soluble on expression in E. coli” value does the source give for “HMNAEINPLHAYFKLPNTVSLVAGSSEGETPLNAFDGALLNAGIGNVALIRISSIMPPEAEIVPLPKLPMGALVPTAYGYIISDVPGETISAAISVAIPKDKSLCGLIMEYEGKCSKKEAEKTVREMAKIGFEMRGWELDRIESIAVEHTVEKLGCAFAAAALWYK” here?
Answer: soluble

Question: For “MSYDVIVRNGLWFDGTGRPPQVRTLGIRDGVVATVSAKPLDETGCPEVIDAGGKWVVPGFIDVHTHYDAEVLLDPGLRESVRHGVTTVLLGMCSLSTVYSDAEDAADLFSRVEAVPRQFVLGALESRKTWSNPAEYVAAIDALPLGPNIASLLGHSDLRASVLGLDRATTRGVVPTDDELETMADRLDAALDAGMLGMSGMDAAIDKLDGDRFRSRALPSTFATWRERRRLIKVLRKRGRILQSAPNVAKAQEALNFFLESSSLFGRRRGVRMSLLVSADAKSSPGAARVIGMGTRLLNKTLDAKVRFQHLPVPFELYSDGIDLPVFEEFGAGTAALHLRDQLERNKLLADPEYRRRFRRSFDRRKLGPTLWHRDFHDATIVECPDESLIGKTFGRIADERGIHPLDAFLDVLVDNGEKNVRWTTIVANHRPKVLDQLANDPAVHMGFSDAGAHLRNMAFYNYPLRLLKRVRDAQLSGRPFLTTERAVYRLTAEVADWFGVDAGTLREGDRADFVVIDPNCLNSDVDAYHEETVPFYGGLSRMVNRNDDAVVATAVNGTVVFGKGEFRDGYGDTVKSGRYLRAGADSRLKTAVLEHHHHHH”, which “soluble on expression in E. coli” value is on record?
Answer: not soluble

Question: Which “soluble on expression in E. coli” value does the source give for “AIASETISRVRQLTEKGAKMEGWDDCWKAGLTPWDRGSSLPVLCELCKEDALPKGYALVPGCGRGYDVLTLASESRVAIGLDCSEEAKKQAEQVRKFSVVDNCQLKEIEAEGF” here?
Answer: soluble

Question: Which “soluble on expression in E. coli” value does the source give for “MSLAQFYSAKRRVTTRQIITVKVNDLDSFGQGVARHNGKALFIPGLLPEESAEVIITEDKKQFARARVSRRLNDSPERETPRCPHFGVCGGCQQQHVSIALQQRSKSAALARLMKHEVNDIIAGAPWGYRRRARLSLNCPPDKPLQMGFRKAGSSDIVNVEQCPVLAPQLAALLPRIRACLASLHGTRHLGHVELVQAGSGTLMILRHTAPLSAADKEKLERFSHSEGLSLFLAPFSEILETVSGEAPWYDSHGLRLAFSPRDFIQVNEAVNQQMVARALEWLDVRAEDRVLDLFCGMGNFTLPLATRAASVIGVEGVPALVEKGRENAIRNGLHNVTFFHENLEEDVTKQPWAKNGFDKVLLDPARAGATGVMRHIIKLKPIRIVYVSCNPATLARDSEALVNAGYEVTRLAMLDMFPHTGHLESMVLFERMEGHHHHHH” here?
Answer: soluble

Question: For “MSLTDRLRATYRVKATAASIEARAKGIAVEQSVEMPLSAIDDPAVLDGIVGVVEEITERGEDCFEVRLALSTATIGGDAGQLFNMLFGNTSLQDDTVLLDIDLPDDLLASFGGPNIGAAGLRARVGASADRALTCSALKPQGLPPDRLADLARRMALGGLDFIKDDHGMADQAYAPFASRVGAVAAAVDEVNRQTGGQTRYLPSLSGHLDQLRSQVRTGLDHGIDTFLIAPMIVGPSTFHAVVREFPGAAFFAHPTLAGPSRIAPPAHFGKLFRLLGADAVIFPNSGGRFGYSRDTCQAVAEAALGPWGGLHASLPVPAGGMSLARVPEMIATYGPDVIVLIGGNLLEARDRLTEETAAFVASVAGAASRGCGLAEGHHHHHH”, which “soluble on expression in E. coli” value is on record?
Answer: soluble

Question: With “MSLDRKLKGSVEEKTLEYLRKRPEIYMALSTGIVNLNGLAALISKENDGMNQLSIRSVLQKMIRDGLVSDYRKSTDDLLKRSKVTLQDKVSVITSRRKIDIDFLSVTFLTDSVVYIVDETRAKNIPKDALIERNVSLIHIFSPPEIVTTPGFAMNVVQRIYAANVNILQLISCSNETMIVVNRDDAISAYSALTSYEGHHHHHH” as the sequence, how does the “soluble on expression in E. coli” value read?
Answer: soluble

Question: Which “soluble on expression in E. coli” value does the source give for “MGPVFVVGQIDEMVPHPDSDHLNICQVNIGDKKVQIVAGAPNASPGLKTIVALPGAMMPSGALIFPGKLRGEDSYGMMCSPRELALPNAPQKRGIIELDDSAVVGEALEHHHHHH” here?
Answer: not soluble

Question: Which “soluble on expression in E. coli” value does the source give for “MGSDKIHHHHHHMKMNHLDIAKEALVAQAQAVAKLADRLDGQFQSAVDLILACEGRTVVCGMGKSGLIGKKMVATFASTGTPSFFLHPAEAFHGDLGMLKPVDVLVLISYSGETEELIKLIPSLKSFGNKFIAMTGSGNSTLAKHADIWLDISVDREVCPNNLAPTTSTLATMAMGDALAVALITANQFKPMDFARYHPGGSLGRKLLTRVADVMHSPAPIVSPASSFQDCLLMMTQSRLGLAMVMDGNELVGIVTDGDLRRALLKNNQVIHASVTEFMTLNPHTIPADCRVSVAEAYMLENKIRALAVVDDCGAIVGVVEIFDGNPVA” here?
Answer: not soluble

Question: For “MMSKQPTSKRQWRDGAAPSAKKTAKPFKSKARPKDETGKTASQPYGQKASDGIKPQNVPKQRAAKAKKLVVRNPNQKIMEHARDLKERRSDLSRMEPERLQKVLAASGVGSRREMEEWITNGWITVNGKTAQLGDKVTPDDHVTVKGSIIKLKWADRLPRIILYYKQEGEIVSRDDPQGRVSIFDRLPQAASSRWVAIGRLDINTSGLLILTTSGELVQRFAHPSFEVEREYAVRVLGGLTGEQMRVLTEEGVMLEDGLAKVERIREQGGEGANKWYNVVIKEGRNREVRRIFESQGLTVSRLVRIGFGPIGLPNRLKRGQFYELNPAEVANIIKWADMLLPGERRRKKA”, which “soluble on expression in E. coli” value is on record?
Answer: not soluble

Question: For “GAERTIQLPKPDMNRAGLLMKALSERHSTREYASKALSNTDLSDLLWAANGINRSSEGKRTAPSAMNRQDIDIYVVLPQGTYLYDAKGHKLNLISEGDHRSAVAGGQAFVNNAPVSLVLVSDLSKLGDAKSNHVQLMGAMDAGIVSQNISLFCSAARLATVPRASMDLVRLKAALKLKDTQMPMMNHPVGYFK”, which “soluble on expression in E. coli” value is on record?
Answer: soluble

Question: For “MNNDVTRILKDARDQGRLTALDYAELIFDNFMELHGDRQFADDKSIIGGLGYLAGRPVTIVGIQKGKNLQDNLDRHFGQPHPEGYRKALRLMKQAEKFGRPVITFINTAGAYPGVGAEERGQGEAIARNLLEMSDLKVPIIAIIIGEGGSGGALALAVADKVWMLEHTVYSILSPEGFASILWKDGTRTTEAAQLMKMTAGELYHMEVVDKVIPEHGYFSSEIVDMIKTSLISELEVLSQLSLEDLLEQRYQRFRKY”, which “soluble on expression in E. coli” value is on record?
Answer: not soluble

Question: Which “soluble on expression in E. coli” value does the source give for “SPSTNRKYPPLPVDKLEEEINRRMADDNKLFREEFNALPACPIQATCEAASKEENKEKNRYVNILPYDHSRVHLTPVEGVPDSDYINASFINGYQEKNKFIAAQGPKEETVNDFWRMIWEQNTATIVMVTNLKERKECKCAQYWPDQGCWTYGNVRVSVEDVTVLVDYTVRKFCIQQVGDVTNRKPQRLITQFHFTSWPDFGVPFTPIGMLKFLKKVKACNPQYAGAIVVHCSAGVGRTGTFVVIDAMLDMMHSERKVDVYGFVSRIRAQRCQMVQTDMQYVFIYQALLEHYLYGDTELEVT” here?
Answer: soluble

Question: Which “soluble on expression in E. coli” value does the source give for “MPRRPGTPRGPQGGRRLLVISASMGAGHDTVAAELVRRARERGDTAQTVDVLALLPYGLGAVLRCFYRGSVRHFPWAYAALYRLFLRPGAGRRPSGTPLARLAGDRLRELAARTGADVVVPVFHLGAQLTGHLRDRGLLPVPSVVLVIDFELHRQWLHPGNDHCLCLTEEAAREARGNTGTPAETCGPVVAPEFSAGRVPGAAQWRETFDRLGPGRPAVVLSAGAWGVGSHLDATVRLLVDHGYLPVVLCGDNQRLRRTLSGTPGVLALGWVTDMPGLLHAARALIDNAAGQTAVQALAAGLPVVGHRPIPGHGADGVRRMAALGVSEVAEDRTALLEALARLTAPGPDRRRRIAAGRALFTGNADALTLVTDLADAARADVRRLEHHHHHH” here?
Answer: not soluble

Question: For “MAIDFNAMPPSTWAENLARNQLSKLQTQLDTQTKSAKARTDALSQLQKALQDYKSSLATLTGKKSLVAMNAAATPDGMASVTAKGNAAAGNYSVFVEQLASSQQ”, which “soluble on expression in E. coli” value is on record?
Answer: not soluble

Question: With “MRPSSRSAGRRTSMRLTTRDFDRTGRPLRFTELGFGSSPLGNLYRAISEEEAQALLERAWAGGIRYFDTAPLYGYGLAEERLGRFLAGHPRSDYVLSTKVGRLLRPVEPGEARDGLGKFFEVPERKERFDYGYDGVMRSLEASLDRLGLDRVDVLYAHDLDLFTHGSQEALEARLAEFMAGGYRALVELRDQGVISAFGAGVNEWQPCQWLAERGEFDLFLLAGRYTLLEQEALESFLPLAEERGIGIVIGGPYNSGVLATGPKPGSFYDYRLAPQAVLDRVAQIHTICERWGVRMFEAAFQFPLRHPAVLSVIPGPQSVGEVMENRIAADAELPPGLWEDLKVAGLLRPDAPV” as the sequence, how does the “soluble on expression in E. coli” value read?
Answer: not soluble

Question: For “MRSAVTFFTFFLDKAEPISTRDTSSESIIPEQEKRRDDMRAVVLVPFLKQQRENRDAASAPAAPGRSVEAKLEEAKGLALAIDLEVTQGLVVPVNQPRPATLFGTGKIEEIGHLLDETNSGLVIVDHPLTPVQQRNLESSGTPRLSTAPVAAALEHHHHHH”, which “soluble on expression in E. coli” value is on record?
Answer: not soluble

Question: With “MGSHHHHHHSSGLVPRGSHMTIGIDKISFFVPPYYIDMTALAEARNVDPGKFHIGIGQDQMAVNPISQDIVTFAANAAEAILTKEDKEAIDMVIVGTESSIDESKAAAVVLHRLMGIQPFARSFEIKEACYGATAGLQLAKNHVALHPDKKVLVVAADIAKYGLNSGGEPTQGAGAVAMLVASEPRILALKEDNVMLTQDIYDFWRPTGHPYPMVDGPLSNETYIQSFAQVWDEHKKRTGLDFADYDALAFHIPYTKMGKKALLAKISDQTEAEQERILARYEESIIYSRRVGNLYTGSLYLGLISLLENATTLTAGNQIGLFSYGSGAVAEFFTGELVAGYQNHLQKETHLALLDNRTELSIAEYEAMFAETLDTDIDQTLEDELKYSISAINNTVRSYRN” as the sequence, how does the “soluble on expression in E. coli” value read?
Answer: soluble

Question: With “MSLTRRATSLLPPNATALERRLADTNARISDIPVDIGALMDPDAIPLRFLPWLAWHLGVETWKDYWPEQVKRARVKAAIRIARKKGTAAAVREVCASFGANVAMREWFEKTPKGRPGTFEILMTVGARDGIPATAEYVADIIAEVDRAKRGTAHYTFTQGFGATGTQRIGAGARVAVYRRLSLTDIEGHHHHHH” as the sequence, how does the “soluble on expression in E. coli” value read?
Answer: not soluble

Question: With “MGSDKIHHHHHHVPLLFGTAGVPLSAKERSTEAGVKRVRELQLDAMEVEFVQGVRMGEEKAQKIAQIAVEEKVALSCHGPYWINFNSQEPEKVAASRERLLHSARISKILGVKSVVFHPAFYHQDDPQVVLVRTAGELMKVREILDAEGNDVILRPETTGKPSQLGTLQEVLTLAQAVPGVLPCIDISHLHARSNGRINTYDEFCQVLEAAAESLGDRWVKHVHFHVSGIDYGVKGEKKHLILKESDLRYPELMKAFHTFGVEGLVICESPNLEEDALLLQTTYRTMA” as the sequence, how does the “soluble on expression in E. coli” value read?
Answer: not soluble

Question: For “MGSDKIHHHHHHMSSVHHKIIKHKIGLLNLAAELGNVSRACKVMGFSRDTFYRYQAAVETGGVEALIDANRRKPNIKNRVEEATEAAILAFALEQPAFGQVRVSNELRKRGIFVSPSGVRSVWLRQNLESFKKRLSALEKHIAETGAVLTEAQVQALEKKQEDDVAQGEIETAHPGYLGSQDTFYVGTLKGVGRIYQQTFVDTYSKWAAAKLYTNKTPITSADMLNDRVLPFFAEQSMGIIRILTDRGTEYCGKPENHDYQLYLALNDIEHSKTKANHPQTNGICERFHKTILQEFYQVTFRRKIYQSIEELQHDLDDWMAYYNSVRTHQGKMCCGRTPMQTLIDAKEIWDDKITELNN”, which “soluble on expression in E. coli” value is on record?
Answer: not soluble
